These results are taken from patent US20230203156A1, “ANTI-MDR1 ANTIBODIES AND USES THEREOF” (KENJOCKETY BIOTECHNOLOGY, INC., priority 2020, published 2023).

The target of data set [1] is T1, human MDR1 extracellular loops 1 and 4 (ECD1, ECD4) (Homo sapiens, UniProt P08183).
T1 construct: FLAG (C); expressed in transfected cells; host or cells: 293T
In words: Epitope mapping with mutant human MDR1 expressed on 293T cells (flow cytometry). The format is binding. To be noted: extracellular loop 1 and extracellular loop 4. The text has this: To determine binding of anti-MDR1 mAbs listed in Table 2 to the two major extracellular loops 1 and 4 of MDR1, various mutations were constructed to alter or substitute these two loops. To examine binding to cynomolgus extracellular loops, the extracellular loop 1 and/or loop 4 of cynomolgus MDR1 were grafted (with a C-terminal FLAG tag) to substitute for the human loops in the human MDR1 using standard techniques. To examine binding dependence on the normal human loops, MDR1 variants with deletion 79-102 and deletion 82-99 in loop 1 were also generated. Loop 1 is also referred to as ECD1. Loop 4 is also referred to as ECD4. These mutant MDR1 efflux pump variants were expressed on 293T cells using standard methods to generate cells that could be used to distinguish binding of various anti-MDR1 mAbs. The different cells were incubated with different anti-MDR1 mAbs for about 1 hour at 4° C. The cells were washed twice with FACS buffer (PBS containing 0.5% BSA). Alexa647 labeled goat anti-human antibody was added as a secondary antibody, and the samples were incubated on ice for another 1 hour. Samples were washed again and analyzed by flow cytometry.
FIG. 9 summarizes the findings from preliminary epitope mapping using mutant human MDR1. […] For example, anti-MDR1 mAb B1.129 requires ECD1 and ECD4 for binding to human MDR1. All of the anti-MDR1 antibodies contact ECD4. […] ECD1 refers to the first extracellular domain of human ABCB1, ECD4 refers to the fourth extracellular domain of human ABCB1 and “others” refers to the remainder of the extracellular domains 2-3 and 5-6 of human ABCB1. Only binding to ECD1 and ECD4 was tested.

Data set [2] relates to MES-SA DX5 uterine sarcoma. Kind of data set: MES-SA DX5 uterine sarcoma model in NSG mice. The format is in vivo. An excerpt:
NSG mice were implanted with MES-SA DX5 cells to model uterine sarcoma. Anti-B1 monoclonal antibodies are efficacious in MES-SA DX5 uterine sarcoma model in NSG mice.

Data set [3] deals with A2780 ADR ovarian carcinoma. Kind of data set: A2780 ADR drug-resistant ovarian carcinoma model in nude mice. The format is in vivo. How it is done:
(§1) Anti-ABCB1 antibodies B1.129, B1.261, B1.223, B1.225, B1.188, B1.28, and B1.226 were tested for effect on growth of tumors in immunodeficient mice. The following cancer cell lines were used for generating tumor models.
A2780 ADR: The adriamycin-resistant cell line A2780ADR has been developed by exposure of the parent A2780 cell line (Sigma catalogue no. 93112519) to adriamycin. A2780ADR is cross-resistant to melphalan and vinblastine. To retain resistance adriamycin has to be added to the media. The cells grow as a monolayer and in suspension in spinner cultures and are tumorigenic in immune deficient mice. Together with the cisplatin-resistant variant A2780cis these lines only differ in their exposure to a single drug and should facilitate the search for molecular changes responsible for the expression of pleiotropic drug resistance in human ovarian cancer.
Nude mice were implanted with A2780 ADR cells to model ovarian carcinoma. Anti-B1 monoclonal antibodies are efficacious in A2780 ADR ovarian carcinoma model in nude mice.

Data set [4] concerns MES-SA DX5 uterine sarcoma. Kind of data set: MES-SA DX5 drug-resistant uterine sarcoma model in nude mice. The format is in vivo. Here is the method: as §1
MES-SA DX5: The multi drug-resistant cell line MES-SA/Dx5 (Sigma. 95051031) was derived from the human uterine sarcoma cell line MES-SA (Sigma Catalogue number. 95051030) which was originally obtained from a tumour from a person at the time of hysterectomy. […] Cross resistance to bleomycin, cisplatin, carmustine, 5-fluorouracil or methotrexate was not observed.
Nude mice were implanted with MES-SA DX5 cells to model uterine sarcoma. Anti-B1 monoclonal antibodies are efficacious in MES-SA DX5 uterine sarcoma model in nude mice.

B1: B1.223: anti-MDR1 antibody, Mouse; VH SEQ ID NO:102, VL SEQ ID NO:104 (antibody, listed as Mus musculus, V domains shown)
VH: EVKLVESGGALVKPGGSLKLSCAASGFTFSNYAMSWVRQTPEKRLEWVATISSGGSYTYYPDSVKGRFTISRDNAKTTLYLQMSGLRSEDTALYYCAKFSNYGRFASWGQGTLVTVSS
VL: DIQMIQSPLSLPVSLGDQASISCRSSQSIVHSSGNTYLEWYLQKPGQSPRLLIYKVSNRFFGVPDRISGSGSGTDFTLRISRVEAEDLGVYYCFQGSHVPYTFGGGTKLELK
With B1, the “epitope on human MDR1” value in data set [1] was “bind to an epitope comprising extracellular loop 1 and extracellular loop 4”. For the same molecule, the results for the “sensitization of MES-SA DX5 uterine sarcoma to paclitaxel” value in data set [2] and in data set [4] (MES-SA DX5 tumors in vivo) were “sensitizes” and “sensitized”, respectively. The “tumor volume, single agent” value in data set [3] (antibody as a single agent) was “decreased tumor volume”. In addition, in data set [3] (antibody plus paclitaxel), the “tumor volume, in combination with paclitaxel” value was “decreased tumor volume”. Moreover, the “tumor volume / tumor growth, single agent” value in data set [4] (MES-SA DX5, nude mice, antibody as a single agent) is “decreased tumor volume”. In addition, the “tumor volume / tumor growth, in combination with paclitaxel” value in data set [4] (MES-SA DX5, nude mice, antibody plus paclitaxel) was “decreased tumor volume”.
